Experiments:
[1] = Remaining lysine decarboxylase activity of cell free extract after incubation at 68° C.; format: biochemical, Escherichia coli; details: 68° C., 1 hour, FIG. 1
Protocol: (§1) The activity of the lysine decarboxylase was measured according to the method described in JP patent application laid-open Publication No. 2008-193899. 0.1 mL of a microbial cell suspension or a treated product thereof was added to 1 mL of a reaction solution containing 100 mM MES-NaOH buffer (pH 6.0), 10 g/L (55 mM) of L-lysine hydrochloride and 26.5 mg/L (0.1 mM) of PLP, and then the reaction mixture was incubated at 37° C. for 5 minutes. 0.1 mL of the reaction solution was collected and added to 1 mL of 1% (v/v) phosphoric acid to stop the reaction. Lysine and 1,5-PD were quantified with HPLC by a post column OPA method (S. R. Vale and M. B. Gloria, Journal Of AOAC International (1997) vol. 80, p. 1006-1012) or a method of quantifying remaining L-lysine using a biosensor BF-5 (Oji Scientific Instruments Co., Ltd.). One unit was defined as an activity that formed 1 μmol of 1,5-PD in one minute under this condition.
A combination mutant for increasing the amount of expressed CadA was constructed using QuikChange™ Site-Directed Mutagenesis Kit (Stratagene). A mutation to alter from Val (GTT) to Ile ([…]) at position 3 was introduced using the plasmid pCadA233 as the template and using oligonucleotides v3i_r (5′-cat gtg att caa tat tgc aat aat gtt cat cta cat tcc tcc tta cg-3′(SEQ ID NO:11)) and v3i_f (5′-cgt aag gag gaa tgt aga tga aca tta ttg caa tat tga atc aca tg-3′ (SEQ ID NO:12)) as primers according to a protocol. The nucleotide sequence of the constructed plasmid was determined by the method described in Example 2 to confirm that the objective mutation had been introduced, and this plasmid was designated as pCadA234. Microbial cells of E. coli JM109/pCadA234 expressing this double mutant CadA234 at high level were cultured to prepare a cell free extract in the same manner as in Example 2. The activity in this cell free extract was 663 U/mL, which was almost the same as that from the strain expressing the wild-type enzyme.
The resulting cell free extract was diluted to 20 fold with 0.1 M MES-NaOH buffer (pH 6.0). Each crude enzyme solution was incubated at 68° C., which is a higher temperature than in Example 2, and the remaining activity was measured over time. After incubation at 68° C. for one hour, the wild-type enzyme was inactivated to 27% while the single mutant enzymes V3I and A590T were inactivated to 47% and 27%, respectively. On the contrary, the double mutant enzyme retained 70% of its activity, and even after 3 hours, still retained about 60% of its activity (FIG. 1). Therefore, it was shown that the double mutation has a synergistic effect and further improved the thermal stability.

[2] = Inhibition of enzyme activity by iron ion and effect of chelating agent EDTA; format: biochemical, Escherichia coli
Protocol: as §1
Cell free extracts were prepared from the strain expressing wild-type CadA and the strain overexpressing double mutant CadA, respectively in the same manner as in Examples 2 and 3. Using the resulting cell free extract, iron sulfate heptahydrate (Nacalai Tesque Inc.) at a final concentration of […] (2 mM) was added to the composition shown in Example 1, and an inhibitory effect was measured. […]

B1: pCadA220: wild-type lysine decarboxylase (CadA) derived from Escherichia coli W3110, expressed from plasmid pCadA220 (protein, UniProt P0A9H3 1-715, looked up)
Inducible lysine decarboxylase: MNVIAILNHMGVYFKEEPIRELHRALERLNFQIVYPNDRDDLLKLIENNARLCGVIFDWDKYNLELCEEISKMNENLPLYAFANTYSTLDVSLNDLRLQISFFEYALGAAEDIANKIKQTTDEYINTILPPLTKALFKYVREGKYTFCTPGHMGGTAFQKSPVGSLFYDFFGPNTMKSDISISVSELGSLLDHSGPHKEAEQYIARVFNADRSYMVTNGTSTANKIVGMYSAPAGSTILIDRNCHKSLTHLMMMSDVTPIYFRPTRNAYGILGGIPQSEFQHATIAKRVKETPNATWPVHAVITNSTYDGLLYNTDFIKKTLDVKSIHFDSAWVPYTNFSPIYEGKCGMSGGRVEGKVIYETQSTHKLLAAFSQASMIHVKGDVNEETFNEAYMMHTTTSPHYGIVASTETAAAMMKGNAGKRLINGSIERAIKFRKEIKRLRTESDGWFFDVWQPDHIDTTECWPLRSDSTWHGFKNIDNEHMYLDPIKVTLLTPGMEKDGTMSDFGIPASIVAKYLDEHGIVVEKTGPYNLLFLFSIGIDKTKALSLLRALTDFKRAFDLNLRVKNMLPSLYREDPEFYENMRIQELAQNIHKLIVHHNLPDLMYRAFEVLPTMVMTPYAAFQKELHGMTEEVYLDEMVGRINANMILPYPPGVPLVMPGEMITEESRPVLEFLQMLCEIGAHYPGFETDIHGAYRQADGRYTVKVLKEESKK
[1]
  remaining activity after incubation at 68° C. for one hour: 27%
[2]; 2 mM iron ion, no EDTA
  activity with 2 mM iron ion, of the activity when no iron ion was added: 46.8%
[2]; FeSO4 2 mM, EDTA 0.5 mM
  Enzyme activity: 827 units/ml
[2]; FeSO4 2 mM, EDTA 1 mM
  Enzyme activity: 856 units/ml
[2]; FeSO4 2 mM, EDTA 2 mM
  Enzyme activity: 821 units/ml
[2]; FeSO4 2 mM, EDTA 4 mM
  Enzyme activity: 840 units/ml
[2]; FeSO4 2 mM, EDTA 5 mM
  Enzyme activity: 832 units/ml
[2]; FeSO4 2 mM, EDTA None
  Enzyme activity: 398 units/ml
[2]; FeSO4 None, EDTA 2 mM
  Enzyme activity: 840 units/ml
[2]; FeSO4 None, EDTA None
  Enzyme activity: 850 units/ml
